5 molecules from PMC4315173 (The Biochemical journal, 2014) can be followed below.

Data set [1] addresses endogenous PDE4D (mouse brain) (mouse (endogenous in brain)) (UniProt Q01063). The data set can be described thus: co-IP.
Data set [2] concerns the molecule itself. In words: SEC + other: sucrose density gradient centrifugation.

Chain of endogenous PDE4D (mouse brain) (mouse (endogenous in brain)) (Q01063 whole entry): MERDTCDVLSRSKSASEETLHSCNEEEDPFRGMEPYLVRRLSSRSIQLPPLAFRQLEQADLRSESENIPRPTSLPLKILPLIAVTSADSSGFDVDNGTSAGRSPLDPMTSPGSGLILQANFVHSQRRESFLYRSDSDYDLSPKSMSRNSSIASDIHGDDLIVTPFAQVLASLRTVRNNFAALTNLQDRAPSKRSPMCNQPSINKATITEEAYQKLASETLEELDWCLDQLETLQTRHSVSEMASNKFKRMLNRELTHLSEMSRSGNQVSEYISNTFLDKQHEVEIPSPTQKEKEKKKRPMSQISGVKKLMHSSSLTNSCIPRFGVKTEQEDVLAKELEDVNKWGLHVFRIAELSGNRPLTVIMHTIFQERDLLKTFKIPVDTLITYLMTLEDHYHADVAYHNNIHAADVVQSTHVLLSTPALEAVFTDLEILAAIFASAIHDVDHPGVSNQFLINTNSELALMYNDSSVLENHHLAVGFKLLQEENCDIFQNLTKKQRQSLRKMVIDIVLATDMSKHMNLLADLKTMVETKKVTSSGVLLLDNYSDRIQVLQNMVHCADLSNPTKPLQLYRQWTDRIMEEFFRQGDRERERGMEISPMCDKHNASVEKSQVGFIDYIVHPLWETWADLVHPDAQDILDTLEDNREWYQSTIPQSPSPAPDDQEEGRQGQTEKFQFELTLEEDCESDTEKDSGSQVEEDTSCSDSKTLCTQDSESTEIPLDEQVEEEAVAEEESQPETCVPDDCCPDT

With “endogenous long PDE4A variants (mouse brain) (from UniProt O89084 1-844) (natural protein)”, in data set [1], the percent of the total PDE4A found in complex with PDE4D stood at 2%.

B1: PDE4D3 (natural protein, UniProt P14270-1 1-672, looked up)
chain: MMHVNTFPFRRHSWICFDVDNGTSAGRSPLDPMTSPGSGLILQANFVHSQRRESFLYRSDSDYDLSPKSMSRNSSIASDIHGDDLIVTPFAQVLASLRTVRNNFAALTNLQDRAPSKRSPMCNQPSINKATITEEAYQKLASETLEELDWCLDQLETLQTRHSVSEMASNKFKRMLNRELTHLSEMSRSGNQVSEYISNTFLDKQHEVEIPSPTQKEKEKKKRPMSQISGVKKLMHSSSLTNSCIPRFGVKTEQEDVLAKELEDVNKWGLHVFRIAELSGNRPLTVIMHTIFQERDLLKTFKIPVDTLITYLMTLEDHYHADVAYHNNIHAADVVQSTHVLLSTPALEAVFTDLEILAAIFASAIHDVDHPGVSNQFLINTNSELALMYNDSSVLENHHLAVGFKLLQEENCDIFQNLTKKQRQSLRKMAIDIVLATDMSKHMNLLADLKTMVETKKVTSSGVLLLDNYSDRIQVLQNMVHCADLSNPTKPLQLYRQWTDRIMEEFFRQGDRERERGMEISPMCDKHNASVEKSQVGFIDYIVHPLWETWADLVHPDAQDILDTLEDNREWYQSTIPQSPSPAPDDQEDGRQGQTEKFQFELTLEEDGESDTEKDSGSQVEEDTSCSDSKTLCTQDSESTEIPLDEQVEEEAVAEEESQPQTGVADDCCPDT
The stoichiometry N is a count of units in the complex or per binding partner. In the case of B1, the “stoichiometry N” value in data set [2] was 2.

B2: PDE4D5 (natural protein, rat, UniProt P14270-8 1-745, looked up)
chain: MAQQTTSPDTLTVPEVDNPHVPNPWLNEDLVKSLRENLLQHEKSKTARKSVSPKLSPVISPRNSPRLLRRMLLSSNIPKQRRFTVAHTCFDVDNGTSAGRSPLDPMTSPGSGLILQANFVHSQRRESFLYRSDSDYDLSPKSMSRNSSIASDIHGDDLIVTPFAQVLASLRTVRNNFAALTNLQDRAPSKRSPMCNQPSINKATITEEAYQKLASETLEELDWCLDQLETLQTRHSVSEMASNKFKRMLNRELTHLSEMSRSGNQVSEYISNTFLDKQHEVEIPSPTQKEKEKKKRPMSQISGVKKLMHSSSLTNSCIPRFGVKTEQEDVLAKELEDVNKWGLHVFRIAELSGNRPLTVIMHTIFQERDLLKTFKIPVDTLITYLMTLEDHYHADVAYHNNIHAADVVQSTHVLLSTPALEAVFTDLEILAAIFASAIHDVDHPGVSNQFLINTNSELALMYNDSSVLENHHLAVGFKLLQEENCDIFQNLTKKQRQSLRKMAIDIVLATDMSKHMNLLADLKTMVETKKVTSSGVLLLDNYSDRIQVLQNMVHCADLSNPTKPLQLYRQWTDRIMEEFFRQGDRERERGMEISPMCDKHNASVEKSQVGFIDYIVHPLWETWADLVHPDAQDILDTLEDNREWYQSTIPQSPSPAPDDQEDGRQGQTEKFQFELTLEEDGESDTEKDSGSQVEEDTSCSDSKTLCTQDSESTEIPLDEQVEEEAVAEEESQPQTGVADDCCPDT
With B2, in data set [2], the “stoichiometry N” value stood at 2.

B3: PDE4D4 (natural protein, rat, UniProt P14270-5 1-803, looked up)
chain: MEAEGSSVPARAGSHEGSDSSGGAALKAPKHLWRHEQHHQYPLRQPQFRLLHPHHHLPPPPPPSPQPQLQPPPPPPLPPPPPPPGATRGRYASSGASRVRHRGYSDTERYLYCRAMDRTSYAVETGHRPGLKKSRMSWPSSFQGLRRFDVDNGTSAGRSPLDPMTSPGSGLILQANFVHSQRRESFLYRSDSDYDLSPKSMSRNSSIASDIHGDDLIVTPFAQVLASLRTVRNNFAALTNLQDRAPSKRSPMCNQPSINKATITEEAYQKLASETLEELDWCLDQLETLQTRHSVSEMASNKFKRMLNRELTHLSEMSRSGNQVSEYISNTFLDKQHEVEIPSPTQKEKEKKKRPMSQISGVKKLMHSSSLTNSCIPRFGVKTEQEDVLAKELEDVNKWGLHVFRIAELSGNRPLTVIMHTIFQERDLLKTFKIPVDTLITYLMTLEDHYHADVAYHNNIHAADVVQSTHVLLSTPALEAVFTDLEILAAIFASAIHDVDHPGVSNQFLINTNSELALMYNDSSVLENHHLAVGFKLLQEENCDIFQNLTKKQRQSLRKMAIDIVLATDMSKHMNLLADLKTMVETKKVTSSGVLLLDNYSDRIQVLQNMVHCADLSNPTKPLQLYRQWTDRIMEEFFRQGDRERERGMEISPMCDKHNASVEKSQVGFIDYIVHPLWETWADLVHPDAQDILDTLEDNREWYQSTIPQSPSPAPDDQEDGRQGQTEKFQFELTLEEDGESDTEKDSGSQVEEDTSCSDSKTLCTQDSESTEIPLDEQVEEEAVAEEESQPQTGVADDCCPDT
Regarding B3, the “stoichiometry N” value in data set [2] is 2.

B4: PDE4A4 (natural protein, human, UniProt P27815-1 1-886, looked up)
chain: MEPPTVPSERSLSLSLPGPREGQATLKPPPQHLWRQPRTPIRIQQRGYSDSAERAERERQPHRPIERADAMDTSDRPGLRTTRMSWPSSFHGTGTGSGGAGGGSSRRFEAENGPTPSPGRSPLDSQASPGLVLHAGAATSQRRESFLYRSDSDYDMSPKTMSRNSSVTSEAHAEDLIVTPFAQVLASLRSVRSNFSLLTNVPVPSNKRSPLGGPTPVCKATLSEETCQQLARETLEELDWCLEQLETMQTYRSVSEMASHKFKRMLNRELTHLSEMSRSGNQVSEYISTTFLDKQNEVEIPSPTMKEREKQQAPRPRPSQPPPPPVPHLQPMSQITGLKKLMHSNSLNNSNIPRFGVKTDQEELLAQELENLNKWGLNIFCVSDYAGGRSLTCIMYMIFQERDLLKKFRIPVDTMVTYMLTLEDHYHADVAYHNSLHAADVLQSTHVLLATPALDAVFTDLEILAALFAAAIHDVDHPGVSNQFLINTNSELALMYNDESVLENHHLAVGFKLLQEDNCDIFQNLSKRQRQSLRKMVIDMVLATDMSKHMTLLADLKTMVETKKVTSSGVLLLDNYSDRIQVLRNMVHCADLSNPTKPLELYRQWTDRIMAEFFQQGDRERERGMEISPMCDKHTASVEKSQVGFIDYIVHPLWETWADLVHPDAQEILDTLEDNRDWYYSAIRQSPSPPPEEESRGPGHPPLPDKFQFELTLEEEEEEEISMAQIPCTAQEALTAQGLSGVEEALDATIAWEASPAQESLEVMAQEASLEAELEAVYLTQQAQSTGSAPVAPDEFSSREEFVVAVSHSSPSALALQSPLLPAWRTLSVSEHAPGLPGLPSTAAEVEAQREHQAAKRACSACAGTFGEDTSALPAPGGGGSGGDPT
As to B4, the “stoichiometry N” value in data set [2] was found to be 2.
